# Experimental data as given in patent US20120045395, “MicroRNAs In Idiopathic Pulmonary Fibrosis” (UNIVERSITY OF PITTSBURGH - OF THE COMMONWEALTH SYSTEM OF …, published 2012).
# Biological target: SMAD3 (UniProt P84022 P84022:1-425)
# Test: EMSA; 5 mM MgCl2, 200 mM NaCl, pH 7.6, poly(dI-dC), room temperature; band diminished by unlabeled competitor; probe described as upstream of the predicted site …
# Settings: tags: full length, Santa Cruz Biotechnology; label: 5'-Cy5
# Procedure: Electrophoretic Mobility Shift Assay (EMSA): Cultured A549 cells at 60-70% confluence were treated with 2 ng/mL recombinant human TGFβ₁ (R&D Systems) for 60 minutes. Nuclear proteins were isolated using a standard rapid micropreparation technique described at Andrews N. C. and Faller D. V. Nucleic acids research (1991); 19:2499). The supernatant was reserved and snap frozen in liquid nitrogen as the nuclear protein fraction. Nuclear extracts and recombinant full length SMAD3 protein (Santa Cruz Biotechnology, Santa Cruz, Calif.) were incubated with 5′-end Cyanine-5 labeled probe and/or non-labeled competitor oligonucleotide for 20 minutes at room temperature in a binding buffer consisting of 20% glycerol, 5 mM MgCl₂, 2.5 mM EDTA, 25 mM DTT, 200 mM NaCl, 50 mM Tris HCl pH 7.6, and 0.25 mg/mL poly(dI-dC). The complementary oligonucleotides (5′-[…]-3′ (SEQ ID NO: 3), 5′-[…]-3′ (SEQ ID NO: 4)) were synthesized by Integrated DNA Technologies (Coralville, Iowa), and consisted of a sequence upstream of the predicted SMAD3/let7d binding site (GGCTGAGTA (SEQ ID NO:5)). […] The protein/DNA complexes were run on a 6% native polyacrylamide gel and visualized on a Typhoon imaging and documentation system using Cyanine-5 dye excitation and fluorescence settings.
# Sequence of SMAD3 (P84022 whole entry, one chain of several): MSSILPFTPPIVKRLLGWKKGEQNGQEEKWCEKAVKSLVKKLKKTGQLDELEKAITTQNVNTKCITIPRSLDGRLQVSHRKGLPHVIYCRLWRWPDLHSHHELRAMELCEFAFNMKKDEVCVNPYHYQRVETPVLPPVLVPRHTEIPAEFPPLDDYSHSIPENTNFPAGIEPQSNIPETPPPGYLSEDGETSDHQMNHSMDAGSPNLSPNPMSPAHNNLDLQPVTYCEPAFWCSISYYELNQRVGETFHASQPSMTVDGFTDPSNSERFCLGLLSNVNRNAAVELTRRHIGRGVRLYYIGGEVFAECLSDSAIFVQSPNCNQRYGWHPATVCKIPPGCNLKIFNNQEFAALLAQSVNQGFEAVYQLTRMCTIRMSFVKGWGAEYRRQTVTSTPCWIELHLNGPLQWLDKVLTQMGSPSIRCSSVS
binder,measurement,value
let-7d promoter EMSA probe (dsDNA) DNA 1: GATAATTAAATGTTAAAAGTCAGC DNA 2: GCTGACTTTTAACATTTAATTATC,binding result,binds
